# Experimental data from patent US20180193437A1 (UNIVERSITY OF FLORIDA RESEARCH FOUNDATION, published 2018).
# B1: M-T7 point mutation E209I (other)
# chain: VRLTSYDLNTFVTWQDDGYTYNVSIKPYTTATWINVCEWASSSCNVSLALQYDLDVVSWARLTRVGKYTEYSLEPTCAVARFSPPEVQLVRTGTSVEVLVRHPVVYLRGQEVSVYGHSFCDYDFGYKTIFLFSKNKRAEYVVPGRYCDNVECRFSIDSQESVCATAVLTYDGSYRSEAGVEVCVPELAKRIVSPYIVKKSSDLEYVKRAIHNEYRLDTSSEGRRLEELYLTVASMFERLVEDVFE
# notes: The mutant was made by mutagenic PCR of the His-tagged M-T7 construct; also called M-T7 (E209I); not shown: C-terminal His tag (His6x)
# Target: T1, rabbit IFNγ (rabbit, UniProt P30123 24-167)
# T1 construct: also called rabbit IFNgamma; interferon gamma
# T1 sequence (looked up): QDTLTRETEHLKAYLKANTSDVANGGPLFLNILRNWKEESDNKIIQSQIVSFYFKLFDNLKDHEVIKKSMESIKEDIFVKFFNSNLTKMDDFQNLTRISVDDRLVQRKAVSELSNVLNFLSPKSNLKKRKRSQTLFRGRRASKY
# Experiment: binding data, method not described
binder,measurement,value
B1,binding result,no binding
